The values below come from patent publication US20190225669A1 (ACCELERON PHARMA, published 2019).

First the molecules themselves.
B3: activin A (ligand, UniProt P08476 311-426, looked up)
chain: GLECDGKVNICCKKQFFVSFKDIGWNDWIIAPSGYHANYCEGECPSHIAGTSGSSLSFHSTVINHYRMRGHSPFANLKSCCVPTKLRPMSMLYYDDGQNIIKKDIQNMIVEECGCS

The target of the test “activin A” is B3. Description: Biacore SPR. How it is done: (§1) Ligands were injected and allowed to flow over the captured receptor protein.
Background: Surface plasmon resonance follows binding to a sensor surface in real time, without labels.

The next test concerns the target T1, activin B (UniProt P09529 293-407).
T1 sequence (looked up): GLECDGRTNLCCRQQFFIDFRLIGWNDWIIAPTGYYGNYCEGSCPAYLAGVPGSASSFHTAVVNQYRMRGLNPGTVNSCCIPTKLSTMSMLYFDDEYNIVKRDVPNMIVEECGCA
Put plainly: Biacore SPR. How it is done:
as §1

In another test the target is T2, BMP5 (UniProt P22003 317-454, limits assumed).
T2 sequence (looked up): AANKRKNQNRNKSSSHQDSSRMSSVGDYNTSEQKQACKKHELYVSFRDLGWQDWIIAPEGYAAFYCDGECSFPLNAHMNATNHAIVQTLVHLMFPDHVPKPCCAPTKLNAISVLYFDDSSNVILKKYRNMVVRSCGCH
Put plainly: Biacore SPR. As to the method: as §1

The next test concerns the target T3, BMP6 (UniProt P22004 382-513, limits assumed).
T3 sequence (looked up): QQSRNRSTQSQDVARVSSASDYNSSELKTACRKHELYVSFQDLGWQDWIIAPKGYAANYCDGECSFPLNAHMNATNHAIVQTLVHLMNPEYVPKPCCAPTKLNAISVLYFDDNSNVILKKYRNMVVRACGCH
Description: Biacore SPR. As to the method: as §1

Another test deals with T4, BMP9 (UniProt Q9UK05 320-429).
T4 construct: also called GDF2
T4 sequence (looked up): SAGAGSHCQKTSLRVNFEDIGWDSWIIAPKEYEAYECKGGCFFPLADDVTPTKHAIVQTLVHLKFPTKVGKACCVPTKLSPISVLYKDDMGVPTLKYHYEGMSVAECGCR
Description: Biacore SPR. How it is done:
as §1

A further test has as its target T5, BMP10 (UniProt O95393 317-424).
T5 sequence (looked up): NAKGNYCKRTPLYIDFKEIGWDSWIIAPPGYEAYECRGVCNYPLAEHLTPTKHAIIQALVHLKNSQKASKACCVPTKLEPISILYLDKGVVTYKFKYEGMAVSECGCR
Description: Biacore SPR. How it is done:
as §1

Another test addresses T6, GDF3 (UniProt Q9NR23 251-364).
T6 sequence (looked up): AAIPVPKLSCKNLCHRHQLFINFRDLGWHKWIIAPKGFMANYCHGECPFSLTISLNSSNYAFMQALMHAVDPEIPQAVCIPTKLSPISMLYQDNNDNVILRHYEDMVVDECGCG
Put plainly: Biacore SPR. How it is done: as §1

Another test addresses T7, GDF8 (UniProt O14793 267-375).
T7 construct: also called myostatin
T7 sequence (looked up): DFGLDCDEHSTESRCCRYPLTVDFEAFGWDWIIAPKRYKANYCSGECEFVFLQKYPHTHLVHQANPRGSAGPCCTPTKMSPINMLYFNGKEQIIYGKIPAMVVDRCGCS
Put plainly: Biacore SPR. As to the method: as §1

The next test concerns the target T8, GDF11 (UniProt O95390 299-407).
T8 construct: also called BMP11
T8 sequence (looked up): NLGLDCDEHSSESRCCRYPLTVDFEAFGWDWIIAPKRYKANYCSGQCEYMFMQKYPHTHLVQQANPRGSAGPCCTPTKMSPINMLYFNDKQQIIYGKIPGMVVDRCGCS
Put plainly: Biacore SPR. How it is done: as §1

Test [1] addresses T9, TGFβ1 (human, UniProt P01137 279-390).
T9 construct: Human (PeproTech) is stated for the A549 reporter assay; also called TGF-beta1
Put plainly: Biacore SPR. As to the method: (§2) A Biacore™-based binding assay was used to compare ligand binding selectivity of the TGFβRIISHORT-Fc:ALK1-Fc heterodimeric complex described above with that of TGFβRIISHORT-Fc and ALK1-Fc homodimeric complexes. […] Ligands were injected and allowed to flow over the captured receptor protein.

The target of test [2] is T9, TGFβ1. Put plainly: Biacore SPR. How it is done: (§3) The heteromeric or homomeric protein complexes were independently captured onto the system using an anti-Fc antibody. Ligands were injected and allowed to flow over the captured receptor protein.
The source holds these as a separate data set.

Test [3] concerns the target T10, TGFβ2 (human, UniProt P61812 303-414).
T10 construct: Human (PeproTech) is stated for the A549 reporter assay; also called TGF-beta2
T10 sequence (looked up): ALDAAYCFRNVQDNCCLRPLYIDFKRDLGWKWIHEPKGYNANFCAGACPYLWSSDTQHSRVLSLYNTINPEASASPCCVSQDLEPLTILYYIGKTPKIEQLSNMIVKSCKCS
Description: Biacore SPR. As to the method:
as §3

The target in test [4] is T9, TGFβ1. Description: cell-based or functional assay.
Test [5] has as its target T10, TGFβ2. Put plainly: cell-based or functional assay.
Test [6] has as its target T10, TGFβ2. Description: Biacore SPR; kinetics indeterminate (transient). As to the method:
as §2

For test [7], the target named is T11, ActRIIB-Fc homodimer (UniProt Q13705 19-137).
T11 construct: extracellular domain; also called ActRIIB homodimer
T11 sequence (looked up): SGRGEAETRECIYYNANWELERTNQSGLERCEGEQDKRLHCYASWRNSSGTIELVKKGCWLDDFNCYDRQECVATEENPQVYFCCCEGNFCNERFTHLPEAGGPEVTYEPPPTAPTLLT
Description: Biacore SPR. How it is done:
as §1

Test [8] addresses T11, ActRIIB-Fc homodimer. Put plainly: Biacore SPR. How it is done:
as §1
This is another data set of the same source.

The target of the next test is T12, ALK3-Fc homodimer (UniProt P36894 24-152).
T12 construct: extracellular domain
Put plainly: Biacore SPR. How it is done: as §1

Test [9] concerns the target T11, ActRIIB-Fc homodimer. Put plainly: Biacore SPR. As to the method:
as §1
This is another data set of the same source.

For test [10], the target named is T11, ActRIIB-Fc homodimer. Description: Biacore SPR. How it is done: as §1
The source holds these as a separate data set.

The target of test [11] is T11, ActRIIB-Fc homodimer. Description: Biacore SPR. As to the method: as §1
This is another data set of the same source.

The target in another test is T13, BMPRII-Fc homodimer (UniProt Q13873 27-150).
T13 construct: extracellular domain
T13 sequence (looked up): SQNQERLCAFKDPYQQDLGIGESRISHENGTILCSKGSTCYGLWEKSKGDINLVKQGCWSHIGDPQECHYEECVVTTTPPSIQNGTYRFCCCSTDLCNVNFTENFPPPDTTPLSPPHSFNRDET
Put plainly: Biacore SPR; kinetics indeterminate (transient). How it is done:
as §1

Like-named read-outs stand apart in the source and are kept apart here.

T9 sequence (P01137 279-390 limits assumed): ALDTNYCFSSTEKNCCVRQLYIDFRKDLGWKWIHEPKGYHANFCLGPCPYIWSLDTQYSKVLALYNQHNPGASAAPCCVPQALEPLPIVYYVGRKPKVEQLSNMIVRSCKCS
T12 sequence (P36894 24-152): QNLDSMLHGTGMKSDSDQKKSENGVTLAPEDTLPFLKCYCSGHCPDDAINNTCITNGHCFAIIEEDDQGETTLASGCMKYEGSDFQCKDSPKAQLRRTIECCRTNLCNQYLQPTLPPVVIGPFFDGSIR

B1: ALK7-Fc homodimer (Fc fusion, UniProt Q8NER5 22-113, looked up, not shown: a dimerising Fc or GST)
chain: LSPGLKCVCLLCDSSNFTCQTEGACWASVMLTNGKEQVIKSCVSLPELNAQVFCHSSNNVTKTECCFTDFCNNITLHLPTASPNAPKLGPME
notes: extracellular domain
As for B1, the binding result with activin A, in the test with activin B, with BMP5, with BMP6, in the test with BMP9 and with BMP10 was “no binding” in each case. Besides, the binding result in the test with GDF3, with GDF8 and with GDF11 was “no binding” each time.

B2: TGFβRIISHORT-Fc homodimer (Fc fusion)
chain: TIPPHVQKSVNNDMIVTDNNGAVKFPQLCKFCDVRFSTCDNQKSCMSNCSITSICEKPQEVCVAVWRKNDENITLETVCHDPKLPYHDFILEDAASPKCIMKEKKKPGETFFMCSCSSDECNDNIIFSEEYNTSNPD
For the molecule B2, the equilibrium dissociation constant (Kd) with TGFβ1 [1] is 0.025 nM; in the test with TGFβ1 [2], 0.02 nM; in the test with TGFβ2 [3] it was 11 nM; with TGFβ2 [6], more than 44 nM. In addition, the “IC50 (pM), CAGA12-luciferase reporter gene assay in A549 cells, TGFβ1 at 640 pg/mL” value with TGFβ1 [4] was found to be 90 pM. Besides, the “IC50 (pM), CAGA12-luciferase reporter gene assay in A549 cells, TGFβ2 at 480 pg/mL” value with TGFβ2 [5] was more than 10000 pM.

Turning to B3, the Kd is 0.019 nM with ActRIIB-Fc homodimer [7]; 0.011 nM with ActRIIB-Fc homodimer [8]; 0.011 nM with ActRIIB-Fc homodimer [9]; 0.015 nM in the test with ActRIIB-Fc homodimer [10]; 0.019 nM with ActRIIB-Fc homodimer [11]; more than 43 nM in the test with BMPRII-Fc homodimer. Moreover, the koff with ActRIIB-Fc homodimer [7] came out at 0.00023 s⁻¹; in the test with ActRIIB-Fc homodimer [8] it was 0.00014 s⁻¹; with ActRIIB-Fc homodimer [9], 0.00014 s⁻¹; with ActRIIB-Fc homodimer [10], 0.00017 s⁻¹; in the test with ActRIIB-Fc homodimer [11], 0.00023 s⁻¹. Also, the kon with ActRIIB-Fc homodimer [7] turned out to be 1.2e+07 M⁻¹ s⁻¹; with ActRIIB-Fc homodimer [8] it was 1.3e+07 M⁻¹ s⁻¹; with ActRIIB-Fc homodimer [9], 1.3e+07 M⁻¹ s⁻¹; with ActRIIB-Fc homodimer [10], 1.2e+07 M⁻¹ s⁻¹; in the test with ActRIIB-Fc homodimer [11] it was 1.2e+07 M⁻¹ s⁻¹. In the test with ALK3-Fc homodimer, the binding result is “no binding”.

The Kd is the concentration at which binding is half-saturated. Low readings indicate a tighter complex, high ones a looser complex. Usually koff stands for the first-order rate constant of dissociation. Read a low koff as a long-lived complex. Usually kon stands for the second-order rate constant of association.
